Reference: patent US10913781B2, “Pepducin design and use” (Tufts Medical Center, Inc., priority 2011, dated 2021)
Where two headings read alike, the source gives them in different places. Peptide text beside a SMILES is read from it. * marks the point of attachment. Palmitoyl = CCCCCCCCCCCCCCCC(=O)*

Key:
VEGF-A production = test: Thrombin-dependent VEGF-A production in A549 cells (ELISA); type: cell-based, human; conditions: A549, 18 hours thrombin treatment
Procedure: (§1) FIG. 13 illustrates that monotherapy with PAR1-i3 pepducins inhibits tumor progression of A549 xenografts. (A) and (B): A549 mice treated with vehicle, P1pal-7, P1pal-i1-11, P1pal-10S, X1/2-i1, X1/2-i3, or Avastin. Each time point represents the mean±SE. (C): Final tumor volume at the completion of the experiment was calculated as a percentage of untreated vehicle control. (D): Serum-starved A549 adenocarcinoma cells were pretreated with P1pal-7, P1pal-10S, P1pal-i1-11, vehicle, or PD98059 and stimulated with thrombin. VEGF production was assessed by enzyme-linked immunosorbent assay. Data are expressed as mean±SD (*P<0.05, **P<0.01).
Because the i3-based P1pal-7 pepducin had similar efficacy as Avastin in suppressing lung tumor growth of A549 xenografts, VEGF-A production was measured in the A549 tumor cells after 18 hours thrombin treatment. […] Unlike in ovarian cancer, no increase was found in PAR1-mediated IL-8 production in A549 cells, consistent with the observed lack of efficacy of CXCR1/2 pepducins in the A549 xenograft models. These xenograft data provide support for the role of a novel PAR1-ERK1/2-VEGF paracrine pathway that is an effective therapeutic target in the A549 adenocarcinoma lung cancer model.

[1] = tested on: A549, HOP62, and HOP92 lung carcinoma cell lines; test: Cytotoxicity/cell viability of lung carcinoma cells (MIT assay); type: cell-based, human; conditions: 3-day period
PAR1 = target: T1, PAR1 (Homo sapiens, UniProt P25116); test: ERK1/2 phosphorylation in A549 cells (thrombin or […]), Western blot; type: cell-based; set-up: endogenous in cells; host or cells: A549, HOP62, H1299, H522, H226, HOP92 lung carcinoma lines; conditions: A549 cells; pepducin 0.1-3 μM
T1 sequence (P25116 22-425): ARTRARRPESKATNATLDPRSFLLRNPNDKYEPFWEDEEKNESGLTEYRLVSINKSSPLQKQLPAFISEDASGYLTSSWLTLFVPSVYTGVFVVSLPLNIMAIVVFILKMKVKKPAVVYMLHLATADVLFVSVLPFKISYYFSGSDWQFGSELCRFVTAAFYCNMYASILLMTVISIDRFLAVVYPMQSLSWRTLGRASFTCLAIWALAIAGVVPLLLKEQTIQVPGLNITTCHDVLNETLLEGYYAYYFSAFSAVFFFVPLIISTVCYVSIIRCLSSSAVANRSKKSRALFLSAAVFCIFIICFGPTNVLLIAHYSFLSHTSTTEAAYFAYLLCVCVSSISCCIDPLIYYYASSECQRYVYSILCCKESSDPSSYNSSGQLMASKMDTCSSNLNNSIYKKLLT
Procedure: FIG. 9 illustrates that differential inhibition of PAR1-ERK activation by i3- and i1-derived PAR1 pepducins. (A-C): Western blots of lysates from A549 cells untreated, or treated with thrombin, SLIGKV (SEQ ID NO:29), or AYPGKF (SEQ ID NO:5). Indicated samples were pretreated with various concentrations (0.1 to 3 μmol/L) of P1pal-7, P1pal-10S, or P1pal-i1-11 before stimulation and immunoblotted with anti-phospho-ERK. (D-F): Quantification of the Western blots in (A-C) were conducted by densitometry and results are expressed relative to maximum (fold max) phosphorylation of pERK.
(B): A549 cells stimulated with 10 μM […] over 2 h. A549 cells pretreated with 0.1 μM P1pal-7 and stimulated with 10 μM […] (SEQ ID NO:30) for 5 min. Total ERK was used as a loading control.
Last, there has been a great deal of interest in understanding the mechanism of PAR1-mediated activation of MAP kinase cascade and PAR1-dependent cellular growth and differentiation, proliferation and gene transcription. […] The effects of i1 versus i3 PAR1 pepducins on ERK1/2 activation were examined in the A549 lung adenocarcinoma cell line. […] Inhibition experiments with a range of pepducin concentrations (0.1-3 μM) were conducted. […] The […] (SEQ ID NO:30) peptide gave a rapid and transient ERK1/2 phosphorylation signal that peaked at 5-15 min after stimulation. […] To determine the specificity of the PAR1 pepducin inhibitors, their effects on the closely related PAR2 and PAR4 receptors were also tested.

A549 xenografts = type: in vivo, mouse
Procedure: as §1
PAR1 expression level is correlated with reduced survival of patients with NSCLC. To define the relative importance of PAR1 in lung tumor progression, in vivo mouse models were used. […] An A549 lung adenocarcinoma xenograft model in nude mice was used to evaluate monotherapy with P1pal-7, P1pal-10S, P1pal-i1-11, or the VEGF antagonist Avastin.

[2] = Pharmacokinetics of PAR1 pepducins in CF-1 mice, plasma LC/MS/MS; type: in vivo, mouse; conditions: 10 mg/kg s.c.
Procedure: FIG. 14 illustrates pharmacokinetics of PAR1 pepducins. (A): CF-1 mice were injected subcutaneously with P1pal-7 (3 mg/kg, open circles), P1pal-7 (10 mg/kg, closed circles), P1pal-10S (10 mg/kg, gray circles), or P1pal-i1-11 (10 mg/kg, open squares) in 20% dimethyl sulfoxide and blood was collected at indicated time points (n=3). Pepducin levels in plasma were quantified with LC/MS/MS. (B): Daily (D1 to D6) plasma levels of P1pal-7 after subcutaneous injection of 10 mg/kg P1pal-7 were measured at 1 hour (open circles) and 24 hours (open squares).
Pharmacokinetics of plasma levels of P1pal-7, P1pal-10S, and P1pal-i1-11 at 30 minutes, and at 1, 2, 4, 6, 8, and 16 hours was measured by LC/MS/MS to determine steady-state pepducin drug levels and the rate of elimination from mice. Subcutaneous injections of P1pal-7 (3 mg/kg or 10 mg/kg) into wild-type CF-1 mice (25 to 30 g) was followed by blood collection at various time points from the vena cava. […] Residual P1pal-7 levels were 10 nmol/L at the 16-hour time point. After the 4-hour plateau, the elimination rate was linear from 4 to 16 hours. The peak plasma level of 3 mg/kg P1pal-7 reached 0.6 μmol/L at 2 hours and elimination was linear between 2 hours and 16 hours. P1pal-10S (10 mg/kg) gave similar peak plasma level of 1.0 μmol/L as P1pal-7 (10 mg/kg) at 1 hour.
Lastly, the peak plasma level of P1pal-7 (10 mg/kg) was measured before and 1 hour after once-daily subcutaneous injection over 6 days to determine whether the peak plasma levels were consistent on daily administration.

PAR2 [3] = target: T2, PAR2 (Homo sapiens, UniProt P55085); test: Antagonist | (% inhibition); set-up: SW620 colon adenocarcinoma cells that endogenously express PAR2; endogenous in cells; host or cells: SW620 (in A7 the SW620 cells were additionally stably transfected with PAR1); conditions: 6 µM
Procedure: (§2) (A) Agonist and antagonist activity of third intracellular (i3) loop PAR2 pepducins (structure shown on top) using calcium flux assays with SW620 colon adenocarcinoma cells that endogenously express PAR2. Each column of three calcium flux traces corresponds to the i3 pepducin sequence shown above. The top row is the agonist activity of 3-4 μM pepducin and the middle row is the agonist activity of 14-15 μM pepducin. […] Final concentration of DMSO vehicle was 0.2%. […] (C) Agonist activity for each pepducin from (A) is reported as initial velocity of calcium flux at 4 μM pepducin (†), or at 14-15 μM pepducin (‡).

PAR2 [4] = target: T2, PAR2; test: Agonist | (%)^‡; set-up: SW620 colon adenocarcinoma cells that endogenously express PAR2; endogenous in cells; host or cells: SW620 (in A7 the SW620 cells were additionally stably transfected with PAR1)
PAR2 [5] = target: T2, PAR2; test: Agonist | (%)^†; set-up: SW620 colon adenocarcinoma cells that endogenously express PAR2; endogenous in cells; host or cells: SW620 (in A7 the SW620 cells were additionally stably transfected with PAR1); conditions: 4 µM
Procedure: as §2

PAR2 [6] = target: T2, PAR2; test: Calcium flux screen for PAR2 pepducin agonist and antagonist activity in SW620 cells; type: cell-based; set-up: SW620 colon adenocarcinoma cells that endogenously express PAR2; endogenous in cells; host or cells: SW620 (in A7 the SW620 cells were additionally stably transfected with PAR1); conditions: for Agonist activity (calcium flux): 3-4 μM and 14-15 μM pepducin; for Antagonist activity (inhibition of SLIGRL calcium flux, area under the curve): 6 μM pepducin, 1 min pretreatment, against 100 μM SLIGRL
Procedure: as §2

## CCCCCCCCCCCCCCCC(=O)N[C@@H](CC(N)=O)C(=O)N[C@@H](CCCNC(=N)N)C(=O)N[C@@H](CO)C(=O)N[C@@H](CCCCN)C(=O)N[C@@H](CCCCN)C(=O)N[C@@H](CO)C(=O)N[C@@H](CO)C(=O)N[C@@H](C)C(=O)N[C@@H](CC(C)C)C(=O)N[C@@H](Cc1ccccc1)C(N)=O [P1pal-10S] (Palmitoyl-NRSKKSSALF-NH2)
VEGF-A production
  Effect on thrombin-dependent VEGF-A production: partially blocked
[1]
  Sensitivity of A549 cells (cytotoxicity): most sensitive
PAR1
  Effect on thrombin-induced ERK1/2 phosphorylation: complete inhibition
A549 xenografts; mouse, in vivo
  Inhibition of tumor progression/growth (final tumor volume vs vehicle): 40%
[2]
  Clearance / plasma half-life in words: rapid clearance after 1 hour
[2]; CF-1, mouse, plasma, sc, read-out: Time of peak plasma level
  Tmax: 1 h
[2]; mouse, plasma, sc, CF-1 mice, read-out: Peak plasma level
  Cmax: 1000 nM

## COc1cccc(-c2cc(=O)c3ccccc3o2)c1N [PD98059, reference compound]
VEGF-A production
  Effect on thrombin-dependent VEGF-A production: could suppress

## Avastin: VEGF antibody; VEGF antagonist [reference compound]
A549 xenografts; monotherapy, nude mice
  Inhibition of tumor progression/growth (final tumor volume vs vehicle): 75%

## P2pal-14GF: N-terminally truncated palmitoylated PAR2 pepducin, M274 to G and K287 to F; SEQ ID NO:23 (Palmitoyl-GDENSEKKRKRAIF-NH2) [listing 1 of 2 here]
PAR2 [3]
  Antagonist | (% inhibition): 0 % inhibition
PAR2 [4]
  Agonist | (%)^‡: 8%
PAR2 [5]
  Agonist | (%)^†: 3%

## P2pal-18Q: palmitoylated PAR2 pepducin, R284 replaced by glutamine; SEQ ID NO:22 (Palmitoyl-RSSAMDENSEKKRKQAIK-NH2) [listing 1 of 2 here]
PAR2 [6]
  Agonist activity (calcium flux): nearly no agonist activity

## P2pal-18F: palmitoylated PAR2 pepducin, K287 to F, first three residues (R267, M268, L269) deleted; SEQ ID NO:19 (Palmitoyl-RSSAMDENSEKKRKRAIF-NH2) [listing 1 of 2 here]
PAR2 [6]
  Antagonist activity (inhibition of SLIGRL calcium flux, area under the curve): devoid of antagonist activity
  Agonist activity (calcium flux): slight decrease in agonist activity at lower concentration

## P2pal-14GF: N-terminally truncated palmitoylated PAR2 pepducin, M274 to G and K287 to F; SEQ ID NO:23 (Palmitoyl-GDENSEKKRKRAIF-NH2) [listing 2 of 2 here]
PAR2 [6]
  Antagonist activity (inhibition of SLIGRL calcium flux, area under the curve): no significant agonist or any detectable antagonist activity
  Agonist activity (calcium flux): no significant agonist

## P2pal-18F: palmitoylated PAR2 pepducin, K287 to F, first three residues (R267, M268, L269) deleted; SEQ ID NO:19 (Palmitoyl-RSSAMDENSEKKRKRAIF-NH2) [listing 2 of 2 here]
PAR2 [3]
  Antagonist | (% inhibition): 0 % inhibition
PAR2 [4]
  Agonist | (%)^‡: 35%
PAR2 [5]
  Agonist | (%)^†: 5%

## P2pal-18SF: palmitoylated PAR2 pepducin, R284 to S and K287 to F; SEQ ID NO:21 (Palmitoyl-RSSAMDENSEKKRKSAIF-NH2) [listing 1 of 2 here]
PAR2 [6]
  Agonist activity (calcium flux): restored agonist activity

## P2pal-18SF: palmitoylated PAR2 pepducin, R284 to S and K287 to F; SEQ ID NO:21 (Palmitoyl-RSSAMDENSEKKRKSAIF-NH2) [listing 2 of 2 here]
PAR2 [3]
  Antagonist | (% inhibition): 57 % inhibition
PAR2 [4]
  Agonist | (%)^‡: 30%
PAR2 [5]
  Agonist | (%)^†: 8%

## P2pal-18Q: palmitoylated PAR2 pepducin, R284 replaced by glutamine; SEQ ID NO:22 (Palmitoyl-RSSAMDENSEKKRKQAIK-NH2) [listing 2 of 2 here]
PAR2 [4]
  Agonist | (%)^‡: 16%
